Biological target: T1, BamCDE complex (E. coli, UniProt P0A903 25-344; P0AC02 20-245; P0A937 20-113)
T1 construct: BamC, lipoprotein of the E. coli BAM complex; BamD, lipoprotein of the E. coli BAM complex; BamE, lipoprotein of the E. coli BAM complex; Unlabelled; also called BamCDE sub-complex; BamCDE subcomplex; copies: + +
Experiment: SEC; equimolar combination of the detergent solubilized proteins, mild rotation 1 h at 4 °C, then gel filtration on HiLoad 26/600 Superdex 200 pg
Details: both partners purified

binding result: binds
B1: BamAP4P5 (D264–W810) (domain or fragment)
chain: not shown
notes: BamA of E. coli, POTRA domains P4 and P5 plus the transmembrane β-barrel, residues D264–W810 (547 residues); Isotope labelled (AVLTI 13C/15N, or 13C-Ile, 13C-Phe and 15N-Gly) for the ssNMR samples; also called BamP4P5
